Reference: patent US20220040297A1 (Chugai, published 2022)

The binders below were run against CD3ε homodimer protein (human, UniProt P07766 23-126, limits assumed) (assay: SPR, immobilized CD3ε homodimer;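 further: biacore T200 surface plasmon resonance at 25 °C, antibody variants flowed as analytes over amine-coupled CD3ε homodimer on a CM4 chip, variant binding amount divided by that of GLS3000 antibody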).
CD3ε homodimer protein, sequence (P07766 23-126 limits assumed): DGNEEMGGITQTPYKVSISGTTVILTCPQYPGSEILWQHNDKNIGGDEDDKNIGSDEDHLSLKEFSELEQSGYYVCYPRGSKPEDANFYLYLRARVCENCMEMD
Protocol: Each one-amino acid altered form constructed, expressed, and purified in the paragraph (6-2) was evaluated using Biacore T200 (GE Healthcare Japan Corp.). An appropriate amount of CD3ε homodimer protein was immobilized onto Sensor chip CM4 (GE Healthcare Japan Corp.) by the amine coupling method. Then, the antibody having an appropriate concentration was injected thereto as an analyte and allowed to interact with the CD3ε homodimer protein on the sensor chip. Then, the sensor chip was regenerated by the injection of 10 mmol/L glycine-HCl (pH 1.5). The assay was conducted at 25° C., and HBS-EP+ (GE Healthcare Japan Corp.) was used as a running buffer. […] Each parameter was calculated using Biacore T200 Evaluation Software (GE Healthcare Japan Corp.).
Specifically, when the amount of the GLS3000-containing antibody bound was defined as X and the amount of the L chain one-amino acid altered form bound was defined as Y, a value of Z (ratio of amounts bound)=Y/X was used.

| Binder | ratio of amounts bound (vs GLS3000) |
| --- | --- |
| GLS3000 R29A (antibody, name in Kabat numbering, V domains shown, one-arm format as m2) VH: QVQLVESGGGVVQPGRSLRLSCAASGFTFSNAWMHWVRQAPGKGLEWVAQIKAKSNNYATYYAESVKGRFTISRDDSKNSLYLQMNSLKTEDTAVYYCRYVHYGAYYGVDAWGQGTTVTVSS VL: DIVMTQSPLSLPVTPGEPASISCRSSQSLVHSNANTYLHWYQQKPGQAPRLLIYKVSNRFSGVPDRFSGSGSGTDFTLKISRVEAEDVGVYYCGQGTQVPYTFGQGTKLEIK | 0.63 |
| GLS3000 R54P (antibody, name in Kabat numbering, V domains shown, one-arm format as m2) VH: QVQLVESGGGVVQPGRSLRLSCAASGFTFSNAWMHWVRQAPGKGLEWVAQIKAKSNNYATYYAESVKGRFTISRDDSKNSLYLQMNSLKTEDTAVYYCRYVHYGAYYGVDAWGQGTTVTVSS VL: DIVMTQSPLSLPVTPGEPASISCRSSQSLVHSNRNTYLHWYQQKPGQAPRLLIYKVSNPFSGVPDRFSGSGSGTDFTLKISRVEAEDVGVYYCGQGTQVPYTFGQGTKLEIK | 0.84 |
| GLS3000 R54A (antibody, name in Kabat numbering, V domains shown, one-arm format as m2) VH: QVQLVESGGGVVQPGRSLRLSCAASGFTFSNAWMHWVRQAPGKGLEWVAQIKAKSNNYATYYAESVKGRFTISRDDSKNSLYLQMNSLKTEDTAVYYCRYVHYGAYYGVDAWGQGTTVTVSS VL: DIVMTQSPLSLPVTPGEPASISCRSSQSLVHSNRNTYLHWYQQKPGQAPRLLIYKVSNAFSGVPDRFSGSGSGTDFTLKISRVEAEDVGVYYCGQGTQVPYTFGQGTKLEIK | 0.69 |
| GLS3000 R45Q (antibody, name in Kabat numbering, V domains shown, one-arm format as m2) VH: QVQLVESGGGVVQPGRSLRLSCAASGFTFSNAWMHWVRQAPGKGLEWVAQIKAKSNNYATYYAESVKGRFTISRDDSKNSLYLQMNSLKTEDTAVYYCRYVHYGAYYGVDAWGQGTTVTVSS VL: DIVMTQSPLSLPVTPGEPASISCRSSQSLVHSNRNTYLHWYQQKPGQAPQLLIYKVSNRFSGVPDRFSGSGSGTDFTLKISRVEAEDVGVYYCGQGTQVPYTFGQGTKLEIK | 0.86 |
| GLS3000 R45E (antibody, name in Kabat numbering, V domains shown, one-arm format as m2) VH: QVQLVESGGGVVQPGRSLRLSCAASGFTFSNAWMHWVRQAPGKGLEWVAQIKAKSNNYATYYAESVKGRFTISRDDSKNSLYLQMNSLKTEDTAVYYCRYVHYGAYYGVDAWGQGTTVTVSS VL: DIVMTQSPLSLPVTPGEPASISCRSSQSLVHSNRNTYLHWYQQKPGQAPELLIYKVSNRFSGVPDRFSGSGSGTDFTLKISRVEAEDVGVYYCGQGTQVPYTFGQGTKLEIK | 0.75 |
| GLS3000 R29L (antibody, name in Kabat numbering, V domains shown, one-arm format as m2) VH: QVQLVESGGGVVQPGRSLRLSCAASGFTFSNAWMHWVRQAPGKGLEWVAQIKAKSNNYATYYAESVKGRFTISRDDSKNSLYLQMNSLKTEDTAVYYCRYVHYGAYYGVDAWGQGTTVTVSS VL: DIVMTQSPLSLPVTPGEPASISCRSSQSLVHSNLNTYLHWYQQKPGQAPRLLIYKVSNRFSGVPDRFSGSGSGTDFTLKISRVEAEDVGVYYCGQGTQVPYTFGQGTKLEIK | 0.56 |
| GLS3000 R54T (antibody, name in Kabat numbering, V domains shown, one-arm format as m2) VH: QVQLVESGGGVVQPGRSLRLSCAASGFTFSNAWMHWVRQAPGKGLEWVAQIKAKSNNYATYYAESVKGRFTISRDDSKNSLYLQMNSLKTEDTAVYYCRYVHYGAYYGVDAWGQGTTVTVSS VL: DIVMTQSPLSLPVTPGEPASISCRSSQSLVHSNRNTYLHWYQQKPGQAPRLLIYKVSNTFSGVPDRFSGSGSGTDFTLKISRVEAEDVGVYYCGQGTQVPYTFGQGTKLEIK | 0.65 |
| GLS3000 R54G (antibody, name in Kabat numbering, V domains shown, one-arm format as m2) VH: QVQLVESGGGVVQPGRSLRLSCAASGFTFSNAWMHWVRQAPGKGLEWVAQIKAKSNNYATYYAESVKGRFTISRDDSKNSLYLQMNSLKTEDTAVYYCRYVHYGAYYGVDAWGQGTTVTVSS VL: DIVMTQSPLSLPVTPGEPASISCRSSQSLVHSNRNTYLHWYQQKPGQAPRLLIYKVSNGFSGVPDRFSGSGSGTDFTLKISRVEAEDVGVYYCGQGTQVPYTFGQGTKLEIK | 0.67 |
| GLS3000 R45D (antibody, name in Kabat numbering, V domains shown, one-arm format as m2) VH: QVQLVESGGGVVQPGRSLRLSCAASGFTFSNAWMHWVRQAPGKGLEWVAQIKAKSNNYATYYAESVKGRFTISRDDSKNSLYLQMNSLKTEDTAVYYCRYVHYGAYYGVDAWGQGTTVTVSS VL: DIVMTQSPLSLPVTPGEPASISCRSSQSLVHSNRNTYLHWYQQKPGQAPDLLIYKVSNRFSGVPDRFSGSGSGTDFTLKISRVEAEDVGVYYCGQGTQVPYTFGQGTKLEIK | 0.77 |
| GLS3000 R29P (antibody, name in Kabat numbering, V domains shown, one-arm format as m2) VH: QVQLVESGGGVVQPGRSLRLSCAASGFTFSNAWMHWVRQAPGKGLEWVAQIKAKSNNYATYYAESVKGRFTISRDDSKNSLYLQMNSLKTEDTAVYYCRYVHYGAYYGVDAWGQGTTVTVSS VL: DIVMTQSPLSLPVTPGEPASISCRSSQSLVHSNPNTYLHWYQQKPGQAPRLLIYKVSNRFSGVPDRFSGSGSGTDFTLKISRVEAEDVGVYYCGQGTQVPYTFGQGTKLEIK | 0.31 |
| GLS3000 R29Y (antibody, name in Kabat numbering, V domains shown, one-arm format as m2) VH: QVQLVESGGGVVQPGRSLRLSCAASGFTFSNAWMHWVRQAPGKGLEWVAQIKAKSNNYATYYAESVKGRFTISRDDSKNSLYLQMNSLKTEDTAVYYCRYVHYGAYYGVDAWGQGTTVTVSS VL: DIVMTQSPLSLPVTPGEPASISCRSSQSLVHSNYNTYLHWYQQKPGQAPRLLIYKVSNRFSGVPDRFSGSGSGTDFTLKISRVEAEDVGVYYCGQGTQVPYTFGQGTKLEIK | 0.69 |
| GLS3000 R29T (antibody, name in Kabat numbering, V domains shown, one-arm format as m2) VH: QVQLVESGGGVVQPGRSLRLSCAASGFTFSNAWMHWVRQAPGKGLEWVAQIKAKSNNYATYYAESVKGRFTISRDDSKNSLYLQMNSLKTEDTAVYYCRYVHYGAYYGVDAWGQGTTVTVSS VL: DIVMTQSPLSLPVTPGEPASISCRSSQSLVHSNTNTYLHWYQQKPGQAPRLLIYKVSNRFSGVPDRFSGSGSGTDFTLKISRVEAEDVGVYYCGQGTQVPYTFGQGTKLEIK | 0.63 |
| GLS3000 R29D (antibody, name in Kabat numbering, V domains shown, one-arm format as m2) VH: QVQLVESGGGVVQPGRSLRLSCAASGFTFSNAWMHWVRQAPGKGLEWVAQIKAKSNNYATYYAESVKGRFTISRDDSKNSLYLQMNSLKTEDTAVYYCRYVHYGAYYGVDAWGQGTTVTVSS VL: DIVMTQSPLSLPVTPGEPASISCRSSQSLVHSNDNTYLHWYQQKPGQAPRLLIYKVSNRFSGVPDRFSGSGSGTDFTLKISRVEAEDVGVYYCGQGTQVPYTFGQGTKLEIK | 0.41 |
| GLS3000 R54Q (antibody, name in Kabat numbering, V domains shown, one-arm format as m2) VH: QVQLVESGGGVVQPGRSLRLSCAASGFTFSNAWMHWVRQAPGKGLEWVAQIKAKSNNYATYYAESVKGRFTISRDDSKNSLYLQMNSLKTEDTAVYYCRYVHYGAYYGVDAWGQGTTVTVSS VL: DIVMTQSPLSLPVTPGEPASISCRSSQSLVHSNRNTYLHWYQQKPGQAPRLLIYKVSNQFSGVPDRFSGSGSGTDFTLKISRVEAEDVGVYYCGQGTQVPYTFGQGTKLEIK | 0.68 |
| GLS3000 R29S (antibody, name in Kabat numbering, V domains shown, one-arm format as m2) VH: QVQLVESGGGVVQPGRSLRLSCAASGFTFSNAWMHWVRQAPGKGLEWVAQIKAKSNNYATYYAESVKGRFTISRDDSKNSLYLQMNSLKTEDTAVYYCRYVHYGAYYGVDAWGQGTTVTVSS VL: DIVMTQSPLSLPVTPGEPASISCRSSQSLVHSNSNTYLHWYQQKPGQAPRLLIYKVSNRFSGVPDRFSGSGSGTDFTLKISRVEAEDVGVYYCGQGTQVPYTFGQGTKLEIK | 0.68 |
| GLS3000 R29V (antibody, name in Kabat numbering, V domains shown, one-arm format as m2) VH: QVQLVESGGGVVQPGRSLRLSCAASGFTFSNAWMHWVRQAPGKGLEWVAQIKAKSNNYATYYAESVKGRFTISRDDSKNSLYLQMNSLKTEDTAVYYCRYVHYGAYYGVDAWGQGTTVTVSS VL: DIVMTQSPLSLPVTPGEPASISCRSSQSLVHSNVNTYLHWYQQKPGQAPRLLIYKVSNRFSGVPDRFSGSGSGTDFTLKISRVEAEDVGVYYCGQGTQVPYTFGQGTKLEIK | 0.34 |
| GLS3000 R54S (antibody, name in Kabat numbering, V domains shown, one-arm format as m2) VH: QVQLVESGGGVVQPGRSLRLSCAASGFTFSNAWMHWVRQAPGKGLEWVAQIKAKSNNYATYYAESVKGRFTISRDDSKNSLYLQMNSLKTEDTAVYYCRYVHYGAYYGVDAWGQGTTVTVSS VL: DIVMTQSPLSLPVTPGEPASISCRSSQSLVHSNRNTYLHWYQQKPGQAPRLLIYKVSNSFSGVPDRFSGSGSGTDFTLKISRVEAEDVGVYYCGQGTQVPYTFGQGTKLEIK | 0.79 |
| GLS3000 R54E (antibody, name in Kabat numbering, V domains shown, one-arm format as m2) VH: QVQLVESGGGVVQPGRSLRLSCAASGFTFSNAWMHWVRQAPGKGLEWVAQIKAKSNNYATYYAESVKGRFTISRDDSKNSLYLQMNSLKTEDTAVYYCRYVHYGAYYGVDAWGQGTTVTVSS VL: DIVMTQSPLSLPVTPGEPASISCRSSQSLVHSNRNTYLHWYQQKPGQAPRLLIYKVSNEFSGVPDRFSGSGSGTDFTLKISRVEAEDVGVYYCGQGTQVPYTFGQGTKLEIK | 0.58 |
| GLS3000 R29G (antibody, name in Kabat numbering, V domains shown, one-arm format as m2) VH: QVQLVESGGGVVQPGRSLRLSCAASGFTFSNAWMHWVRQAPGKGLEWVAQIKAKSNNYATYYAESVKGRFTISRDDSKNSLYLQMNSLKTEDTAVYYCRYVHYGAYYGVDAWGQGTTVTVSS VL: DIVMTQSPLSLPVTPGEPASISCRSSQSLVHSNGNTYLHWYQQKPGQAPRLLIYKVSNRFSGVPDRFSGSGSGTDFTLKISRVEAEDVGVYYCGQGTQVPYTFGQGTKLEIK | 0.67 |
| GLS3000 R54D (antibody, name in Kabat numbering, V domains shown, one-arm format as m2) VH: QVQLVESGGGVVQPGRSLRLSCAASGFTFSNAWMHWVRQAPGKGLEWVAQIKAKSNNYATYYAESVKGRFTISRDDSKNSLYLQMNSLKTEDTAVYYCRYVHYGAYYGVDAWGQGTTVTVSS VL: DIVMTQSPLSLPVTPGEPASISCRSSQSLVHSNRNTYLHWYQQKPGQAPRLLIYKVSNDFSGVPDRFSGSGSGTDFTLKISRVEAEDVGVYYCGQGTQVPYTFGQGTKLEIK | 0.36 |
| GLS3000 R29I (antibody, name in Kabat numbering, V domains shown, one-arm format as m2) VH: QVQLVESGGGVVQPGRSLRLSCAASGFTFSNAWMHWVRQAPGKGLEWVAQIKAKSNNYATYYAESVKGRFTISRDDSKNSLYLQMNSLKTEDTAVYYCRYVHYGAYYGVDAWGQGTTVTVSS VL: DIVMTQSPLSLPVTPGEPASISCRSSQSLVHSNINTYLHWYQQKPGQAPRLLIYKVSNRFSGVPDRFSGSGSGTDFTLKISRVEAEDVGVYYCGQGTQVPYTFGQGTKLEIK | 0.37 |
